From the supplement of paper PMC7125110
± gives the standard error. For some assays here: Variants at the floor of the assay were thinned out.

B1: glmS ribozyme (parent)
chain: AUAAAAGCGCCAGAACUACAGAAAUGUAGUUGACGAGGAGGAGGUUUAUCGAAUUUUCGGCGGAUGCCUCCAAA

Assays:
Conditions in all cases: with glucosamine-6-phosphate
glucosamine-6-phosphate [1] = variants of: B1; assay: kcat; higher = faster cleavage; RNA array
Procedure, shortened: (§1)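 kcat and KM were obtained from weighted Michaelis–Menten fits across concentrations of kobs values. Those came from one- or two-exponential decay fits to per-tile medians normalised to baseline and to non-cleaving reference variants. The variants were barcoded ribozymes transcribed in situ by E. coli RNA polymerase on sequenced MiSeq chips and tracked through a hybridised Cy3 probe at 37 °C, with 40 μM to 10 mM glucosamine-6-phosphate in HEPES/KCl/Mg(OAc)2 buffer flowed in.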

glucosamine-6-phosphate [2] = variants of: B1; assay: KM; higher = weaker cofactor use; RNA array
Procedure, shortened: as §1

glucosamine-6-phosphate [3] = variants of: B1; assay: self-cleavage kobs at 40 uM GlcN6P; higher = faster cleavage; RNA array
Procedure, shortened: as §1

glucosamine-6-phosphate [4] = variants of: B1; assay: self-cleavage kobs at 160 uM GlcN6P; higher = faster cleavage; RNA array
Procedure, shortened: as §1

glucosamine-6-phosphate [5] = variants of: B1; assay: self-cleavage kobs at 640 uM GlcN6P; higher = faster cleavage; RNA array
Procedure, shortened: as §1

glucosamine-6-phosphate [6] = variants of: B1; assay: self-cleavage kobs at 2500 uM GlcN6P; higher = faster cleavage; RNA array
Procedure, shortened: as §1

glucosamine-6-phosphate [7] = variants of: B1; assay: self-cleavage kobs at 10000 uM GlcN6P; higher = faster cleavage; RNA array
Procedure, shortened: as §1

Variant	kcat (glucosamine-6-phosphate [1])	KM (glucosamine-6-phosphate [2])	self-cleavage kobs at 40 uM GlcN6P (glucosamine-6-phosphate [3])	self-cleavage kobs at 160 uM GlcN6P (glucosamine-6-phosphate [4])	self-cleavage kobs at 640 uM GlcN6P (glucosamine-6-phosphate [5])	self-cleavage kobs at 2500 uM GlcN6P (glucosamine-6-phosphate [6])	self-cleavage kobs at 10000 uM GlcN6P (glucosamine-6-phosphate [7])
A14G A15U U30G	0.0196 ± 0.0037 s⁻¹	263 ± 69 µM	0.00266 ± 0.00038 s⁻¹	0.00652 ± 0.0021 s⁻¹	0.0127 ± 0.0037 s⁻¹	0.0232 ± 0.0085 s⁻¹	
C34G C67U	< 1e-05 s⁻¹				< 1e-05 s⁻¹		
A6C U47C	1.02e-05 ± 2.4e-07 s⁻¹	526 ± 77 µM		< 1e-05 s⁻¹			
U31C C67U	0.00122 ± 0.00016 s⁻¹	1290 ± 260 µM	4.68e-05 ± 7.4e-06 s⁻¹	0.000125 ± 2e-05 s⁻¹	0.000375 ± 4.8e-05 s⁻¹	0.000785 ± 0.00011 s⁻¹	0.00115 ± 0.00016 s⁻¹
G40A G66C	0.000903 ± 0.00019 s⁻¹	2220 ± 740 µM	3.77e-05 ± 1.3e-05 s⁻¹	6.89e-05 ± 1.1e-05 s⁻¹	0.000166 ± 3.2e-05 s⁻¹	0.00045 ± 8.6e-05 s⁻¹	0.000774 ± 9.9e-05 s⁻¹
C16U A52C	1.88e-05 ± 3.1e-06 s⁻¹						
U54C C71G	0.00083 ± 0.00027 s⁻¹			0.000132 ± 5.7e-05 s⁻¹	0.000424 ± 0.00013 s⁻¹	0.000351 ± 0.00011 s⁻¹	0.00091 ± 0.00016 s⁻¹
A14U C68U	0.00143 ± 0.00047 s⁻¹		2.73e-05 ± 7.7e-06 s⁻¹	6.57e-05 ± 1.2e-05 s⁻¹	0.000297 ± 3.8e-05 s⁻¹	0.000422 ± 6.8e-05 s⁻¹	0.00123 ± 0.00011 s⁻¹
G35A G38U	< 1e-05 s⁻¹			< 1e-05 s⁻¹			
A12U G40U	0.0088 ± 0.0017 s⁻¹	1410 ± 390 µM	0.000308 ± 2.8e-05 s⁻¹	0.000749 ± 8.6e-05 s⁻¹	0.00235 ± 0.00038 s⁻¹	0.00609 ± 0.00085 s⁻¹	0.00785 ± 0.00081 s⁻¹
U31G G40U	0.00241 ± 0.0003 s⁻¹	2730 ± 500 µM	3.85e-05 ± 7.6e-06 s⁻¹	0.000115 ± 1.6e-05 s⁻¹	0.000515 ± 5.8e-05 s⁻¹	0.00119 ± 0.00013 s⁻¹	0.00183 ± 0.0002 s⁻¹
C61G U69C	6.05e-05 ± 1.7e-05 s⁻¹			6.31e-05 ± 1.1e-05 s⁻¹	5.44e-05 ± 1.3e-05 s⁻¹	7.59e-05 ± 1.2e-05 s⁻¹	
A12G C67G C68A	6.18e-05 ± 2.3e-05 s⁻¹			6.68e-05 ± 1.8e-05 s⁻¹	0.000113 ± 2.6e-05 s⁻¹	6.87e-05 ± 1.8e-05 s⁻¹	
G32C A53U	0.000101 ± 5.9e-06 s⁻¹	7510 ± 930 µM	< 1e-05 s⁻¹	< 1e-05 s⁻¹		2.59e-05 ± 6.8e-06 s⁻¹	5.79e-05 ± 5e-06 s⁻¹
G44U U46G	0.000218 ± 4.7e-05 s⁻¹	3350 ± 1300 µM	< 1e-05 s⁻¹		2.83e-05 ± 1e-05 s⁻¹	0.000102 ± 1.5e-05 s⁻¹	0.000146 ± 3.9e-05 s⁻¹
A12C G59C	1.09e-05 ± 2.5e-06 s⁻¹						

Variant	kcat (glucosamine-6-phosphate [1])	KM (glucosamine-6-phosphate [2])	self-cleavage kobs at 40 uM GlcN6P (glucosamine-6-phosphate [3])	self-cleavage kobs at 160 uM GlcN6P (glucosamine-6-phosphate [4])	self-cleavage kobs at 640 uM GlcN6P (glucosamine-6-phosphate [5])	self-cleavage kobs at 2500 uM GlcN6P (glucosamine-6-phosphate [6])	self-cleavage kobs at 10000 uM GlcN6P (glucosamine-6-phosphate [7])
U47G G66U	0.000146 ± 7.9e-06 s⁻¹	756 ± 130 µM		3.12e-05 ± 1.5e-05 s⁻¹	6.79e-05 ± 8.7e-06 s⁻¹	0.000106 ± 1.1e-05 s⁻¹	0.000142 ± 1.4e-05 s⁻¹
U54A C58A	0.000802 ± 0.00016 s⁻¹	5450 ± 1700 µM		2.83e-05 ± 1.3e-05 s⁻¹	9.65e-05 ± 1.3e-05 s⁻¹	0.000217 ± 2.9e-05 s⁻¹	0.000547 ± 5.7e-05 s⁻¹
G13C A15U	0.000131 ± 1.4e-05 s⁻¹	2810 ± 940 µM			3.78e-05 ± 1e-05 s⁻¹	5.63e-05 ± 7.5e-06 s⁻¹	0.000103 ± 6.3e-06 s⁻¹
G29U U54A C67G	8.75e-05 ± 2.6e-05 s⁻¹			5.68e-05 ± 1.4e-05 s⁻¹	8.37e-05 ± 1.3e-05 s⁻¹	0.000134 ± 2.5e-05 s⁻¹	5.17e-05 ± 2e-05 s⁻¹
G29U A64C	1.56e-05 ± 2.5e-06 s⁻¹		< 1e-05 s⁻¹				
U54A	0.0591 ± 0.015 s⁻¹	2360 ± 680 µM	0.00106 ± 2e-05 s⁻¹	0.00285 ± 0.00013 s⁻¹	0.0124 ± 0.00049 s⁻¹	0.03 ± 0.0018 s⁻¹	0.0497 ± 0.0024 s⁻¹
G29A U30G	0.00554 ± 0.0022 s⁻¹		0.000159 ± 2.5e-05 s⁻¹	0.000288 ± 5.9e-05 s⁻¹	0.00125 ± 0.00029 s⁻¹	0.0021 ± 0.00068 s⁻¹	0.00513 ± 0.00085 s⁻¹
A33U U55C C61A	1.69e-05 ± 5.1e-06 s⁻¹						
A14G U49A	3.99e-05 ± 1e-06 s⁻¹	773 ± 130 µM					3.67e-05 ± 1.2e-05 s⁻¹
G38U C67G	1.53e-05 ± 7.3e-06 s⁻¹						
C16A U31A	0.0016 ± 0.00038 s⁻¹	3990 ± 1400 µM		8.65e-05 ± 2.4e-05 s⁻¹	0.000194 ± 5.1e-05 s⁻¹	0.000585 ± 0.00016 s⁻¹	0.00119 ± 0.00027 s⁻¹
G13U U56A	0.0005 ± 2.3e-05 s⁻¹	1880 ± 150 µM		4.35e-05 ± 1.3e-05 s⁻¹	0.000124 ± 1.6e-05 s⁻¹	0.000287 ± 3.6e-05 s⁻¹	0.000422 ± 8.8e-05 s⁻¹
C16G U46A	0.000198 ± 1.7e-05 s⁻¹	676 ± 180 µM		4.2e-05 ± 2e-05 s⁻¹	9.94e-05 ± 2.2e-05 s⁻¹	0.000146 ± 2.2e-05 s⁻¹	0.000213 ± 4.4e-05 s⁻¹
G40A G41A	0.000106 ± 2.5e-05 s⁻¹				6.83e-05 ± 1.2e-05 s⁻¹	0.000163 ± 2.3e-05 s⁻¹	8.89e-05 ± 1e-05 s⁻¹
A64G C67U	0.00193 ± 0.0003 s⁻¹	1860 ± 470 µM	2.93e-05 ± 7.3e-06 s⁻¹	0.000155 ± 2.3e-05 s⁻¹	0.000628 ± 8.6e-05 s⁻¹	0.00125 ± 0.00017 s⁻¹	0.00154 ± 0.00015 s⁻¹
C71G	0.0034 ± 0.00063 s⁻¹	1460 ± 470 µM	0.000157 ± 1.8e-05 s⁻¹	0.00041 ± 3.6e-05 s⁻¹	0.000926 ± 4.6e-05 s⁻¹	0.00218 ± 0.00013 s⁻¹	0.00313 ± 0.00019 s⁻¹
